The source of these data is a protein production outcome set (Wang et al. 2014).

A short description of this series: label from the status in PepcDB records.
With “MEIHSSAAAEVFPVCRSLLGKLPAHSHNRSVAPTVCDYYPQIMKTYNSKMTTQHSSDIRNSQNISASFVTPHDAPVTSRKYVPKFNSNNHRIKTAAAFEKGSDIYHAVRPNYPNSVIELLNLSPNSRVLDIGCGTGKLTEQIAQQTSSVYALDPSKDMLDSFRSTLDIPSWQATAEQTAVSDSRFSTLTCAQTWHWVEPLAASAELDRISTDDAQLLLVWNTLDVSVPWVHRLSRIMHSGDTLAEGFIPHVAQPWELVSVLRGKHAQELYPDQIHTLAHTRSYWLRASEKTREKLTHNLSWYLTDHLELPSTSLVEIPYRFDAFLYKKALVKTQ”, the protein production entry is “failed”. For “MEIIAAILVGIVALEHLFIMILEMFFMNSKVAKRAFKLPEHLEGDRNVAIMFANQGLYNGFLAVGLIWGLILGFNSIGYMVQLFFVMCVVVAALFGGFTSNKSIIVKQGLPAILALIALLIVI” the value was “failed”; for “MEIKDLKRLARYNPEKMAKIPVFQSERMLYDLYALLPGQAQKVHVHEGSDKVYYALEGEVVVRVGEEEALLAPGMAAFAPAGAPHGVRNESASPALLLVVTAPRP”, “not failed”; for “MEINRQIIHPLIFVAFFVTITGSVAGAAAAPEVNMELVGHFGGTTDAVDVAGNYAYVGQGQDFLILDITNPSSPVLVSKIMTEGFVRDIKVSRNYAYVADDDNGLVIVDISNPSSPTLKGSYNIPGYTYCITVSGNYAYVADNDGLVIVDISNPSDPILKGRYAGPTGDVAVYGNYAYVADWGNGLMIVDISNPSSPVLKGSYDTAGDIYGVSISGNYAYVADGDTGLVIVDISNPSSPTLKGNYNTAGIACDVSVLGNYAYVADNDNGLVIVDISDPSSPVLKGNGSTTGYAHGIEVSGNYAYVANSNTGLVIVDISNPSSPTLKGSCDTIVRAKSIAVSGNYAYIADWDNGLVIVDISNPSSPFLKGSCDTPRSAQGVAVSGNYAYVADDDGLVIVDISNPSFPILNKSYNTGGWAQGITVSGNYAYVIDMANGIFIVDISNPSSPILEGMYDTSPIIIENYDYTGSIWSVSVSGNYAYVADEGNGLLIVDISNPSSPILKGSYDTAGLAYDVAVSGNYAYVADSKNGLAIIDISNPSSPILVGNYNTSGYAECVSISGNYAYVAVDDSLVVVDISNPSSPILKGLYAGSAGDIAVSGNYVYASEGVNGLVILKANPESAFTVADFSSNITSGYAPLSIQFNDHSQNATSWNWDFGDGYNSTNQNPIHTYSSAGTYTVNLTVINENRTASKVAKIFVLNTSSSTEENSSGSEETGGDGVILTKDTGAPTKERKITPGFEIVYWVVSLLVAFWIKGSNKK”, “failed”. For “MEIRMAAAADFAEIWPLFQAVISSGDTYVFTPDTPEQDAYDYWFGAGVRCWVAVHEGRVVGMYKLIDNQRGLGNHVANASFMVDGEARGLGIGKALGLHCIKQATDLGYRAIQFNFVVSTNTLAVALWQKLGFEIIATLPGAFNHSQLGYVDAYVMHRALLPN” the value was “failed”; for “MEIRNVKGTKDYLPEEQVLRSKIKRACEDTFERYGCKPLETPTLNMYELMSYKYGGGDEILKEIYTLQDQGKRDLALRYDLTIPFAKVVAMNPNIRLPFKRYEIGKVFRDGPIKQGRFREFIQCDVDIVGVESVMAEAELMSMAFELFQTLNLEVTIQYNNRKLLNGILQAINIPTELTSDVILSLDKIEKIGIDGVRKDVLERGISEEMADTICNTVLSCLQLSIADFKEAFNNPLVADGVNELQQLQQYLIALGINENTIFNPFLARGLTMYTGTVYEIFLKDGSITSSIGSGGRYDNIIGAFRGDDMSYPTVGISFGLDVIYTALSQKETISST”, “not failed”; for “MEITKRIEELREEMVESLKKFISINSVNPAFGGPGEKEKADWLEGLLRDFGFEVDRCDVRDDRGIWRSNIVAKIPGKNREKTLWIVTHIDTVPPGDLSLWETDPFVPVVKDGKVYGRGAEDNGGSMIASIYAGKALIDLGITPEYNFGLALVADEEAGSEYGIQYLIEKGLFSPEDMFLVPDAGNEKGDFIEIAEKSILWFKVMVNGKQGHASRPQTTENALRKGAHLITEIDEALHRKYSDRDELFDEPLSTFEPTRAEKTVDNVNTVPGRFVFYFDCRVLPRYNLDEVLSIVKSILDGRGAELEVVVKQPAPEPTPPDSELVVKLSNVLRSLRGLEAKVGGIGGGTCAAFFRKKGWPAVVWSTIDETAHQPNEYRRISHMVEDAKVFALLGTER”, “not failed”. The result for “MEITVIASSSIDEGIGSWDLKTGTEQLQFKPCASPAHGLTAVGEKFLASSQLSARNTSGSIFYWSWTKPQAEVKSYPVEPIKALAANNEGTYLVGGGISGDIYLWEVATGKLLKKWHGHYRSVTCLVFSGDDSLLVSGSQDGSIRVWSLIRLFDDFQRQQGNTLYEHNFNEHTMSVTDIVIDYGGCNAVIISSSEDRTCKVWSLSRGKLLKNIIFPSVINALALDPGGCVFYAGARDSKIYIGAINATSEYGTQVLGSVSEKGKAITCLAYCADGNLLISGSEDGVVCVWDPKSLRHVRTLIHAKGSRKGPVNNIQIVRKTIVANSNKTQVSWKSRGALIPPPLEKYERPVEDTMDGIVTVDPPPFSDVPVYSSFLSADLIDEQVKELQQQGSAATEMEMERLKLEYKRSLQMNEQWQKNYENLLQVVMEEEQIGGTN” reads “failed”. Take “MEIYLVFVDAASNSNKFWTAKVEQNQLTVQWDRVGYKAQTKVHQFTSQAQAANKYNNLVFEKKAKGYQESQPQIESCGVVDIRRAMQLLNGLRSYVTNRNFNADYINLLNQYLKIIPTPLGMQLEPYRIFTSVADVDHQRELLSSLIPATPVAVTQAKQMPESQEKIVSLRGIHKNLWRHFLEHHHHHH”: the protein production entry is given as “failed”. For “MEKCSVGGLELTEQTPALLGNMAMATSLMDIGDSFGHPACPLVSRSRNSPVEDDDDDDDVVFIESIQPPSISAPAIADQRNFIFASSKNEKPQGNYSVIPPSSRDLASQKGNISETIVIDDEEDVETNGGAEKKSSFFIEWGLPGTKNKTNDLDFSTSSLSRSKTKTGVRPFNPGRMNVAGDLFQNGEFATHHSPEMHLQRRLMSFFQ”, the protein production result was “not failed”. “MEKDDATASFSPSFSTYSGDRLVEIAERVCYKEKSDAEFEFSTAATSSSGDGGLVFPVFNKNLISGDVSPEKVIPLKDLFLRERNDQQPPQQTYSSSSDEEEEDDEFDSIPSEIYCPWTPARSTADMSPSGGCRKSKSTGSSSTSTWSTKRWRLRDFLKRSKSDGKQSLKFLNPTNRDDDDESSKSKKKVSVSVTVSAHEKFYLRNKAIKEEDKRKSYLPYKQDLVGLFSNIHRYGKTFPPF”: the protein production entry is listed as “failed”.

As to “MEKDDSNDGSIIGGNGITAGKDVFLHNIKAPVNIGNTNNTNQNYTTYIISENIEEHTKSLIDFAQFCENKREYEKALDYYEQARVKLEKSESKILLVKVMMGEAVCHHKKGNLSRAKNLIFEAERLDPKNPTVLANIASQLKSENPDEAEIYAKKALEFDKNNFLAKCVIGLLEYDKGNIKDSLRTLKQASTINPNVGYPFNCMARIYSSEKDYGNAIKYGKKAVKIESDNAIFLMELAIDYMNIAFPENEVCISSDFSKMLKMEYLEKALKCLEKAKEMSESQGNNYLNCEIYTYLSRVHLAKGEFNKSIEYCEMIINSGLDTIDIYIILGEAYGECQNYDKVIEYYELLLKRENLTENHLFIVKANLATSYFYKNRLNEAEKLFKELIDENPENINLCIQMSNVLEENGKIEKAFSLLEKIDKFSQKPWDFYYMMGRLYHKKDDYESSVKYLKEAISKNSEAIPPRIYLINLYLECGMHKYAVKQAIELIQLAPTGINFYKLASLYYEIGDYKESAVFSRKALEADYGKVETYRLLCSSLLEANKLSEAKDEFENAFTKYPDDLELKLNYSATLSALEYTEKAIEILTQIISNDPNVVFAYKALARIYYKEASYEIALEYSKKAVFIEPEDEDAHFVMGCSLLNLGKNDEAVEEIQKVIEINPNFDSAWLIDAEKGMEYLGNLITISNHIIERYENGNITISKVGELLIKDTFDLLCHINNVKVAESLSLSDEKIDQLRNSPISKRDVLVDETMLGILAKTGSLDLLRLAFDHVYVIKELEDKIVIGPYLKDHPYRDVKNKLQIIDGGWIESLNPNDMIALATKKIVVENKFSKNDISFIALALDKDFLCLTEDLLLRIQLESINKPTCGIFGFVNYAVSKNIIKQDDAEKIFTKVKSVCIVE”, the protein production entry is listed as “failed”. For “MEKDKKTTAKIYPFYPNGQFYFERGVEAFREQRIKEAIRYLVRASELEPGEPVILCQLAICYTEIGQFHKSNQLLREIMEKRLGNMEYCYYFIANNFAYMKDYRRALQYASRYLEIAADGDYAEEAKDLIEVLLEETPFGETIENGFSKLEQEFYSYKKEINRYLAEEDSASACDILKKVIDEKPNFWPAYNQLAALYFEQLKEEEGVKVLSDLIARNPGNLLGLCDLFIYHFYKGNREEADSLYSELRDVLPVLSHHKEKIGLIHAMMGDYEEADDLLEQVADLEVTERSKYYYYRAKSAYYLDEVEEAKMFWHSFLECDLYEDTRFPWEQEADLTNDTRLVLEMLQAESDMTHLLGVYAMTVSGNRPEFVLFHPLLDMSSWSYMEHLMFTDFDYFPDGNVEQNCYLIMKAMTILRENGLLLNEENLPLYETIFSLVLMENRKELILGRYTIETVASAIAKIFLPEMKLASVDEFECSKCARDIEQFLSR” the value was “failed”.

Take “MEKDLLDKLGQHLVWRMGRAEDEDVLVVRVGLASATPRFRELPRLLNLPEAEMRRLVQEGRVRVEWVEE”: the protein production result is on record as “not failed”. For “MEKFQENNILEDKKVCINENEEAWNKETYNAWIKRFGTAKEAAEKIKSMPEKKLNVLLDKFGDVKGKKIFNLMGSNGNKAVALALLGADVTVVDFSEGNRRYALDLAEACGVKINFILSDVLRMPKEVMSGDYDIVFAEMGILHYFSDLSPFMNVIHSLLKDGGKAVLRDFHPVSTKLITSRGSTAKVRKHKVTGDYFDTSLEEKEVAYSKYLEEGEVEKVFLRKWNLGEIVTAVANTGLKIESLTEEPNLSSDVFDKGIPKTFTIVARK” the value was “failed”. The result for “MEKHKIALISDWYFPKVGGIEYSIHALAKTLNQRGHKVHVITRCYPNIPEYNIRDGVAIIRIKSSPFPGQQRFLMPGAYKELYRLLKEGNYDIINSHGLDSPLGMIALIAARKLGIPSVVTNHSLVGHTPLRLYLYLAGKLLVGNADAVIAVSSAVEKDTKLMTKKPVYRIFNGMEYEESNPIAPLPFDRKGKLVIITVARMTKKKGVQNLIGLAPSFLKKYENLIFLMIGDGPLLKNLEKKVEESGLSENFYFTGEVPRKAVLEYLEQADIFALPSSDEAFGISILEAISKNVPVVAMNHSGISDIITHGVNGYLADNLSEFASCLQDLIEKPALRAEFARKAGEGLSNYDWNKIYEQTCRVYREVIYEKHHHNS” reads “failed”; that for “MEKIAILVDVQNVYYTCREQYGRHFDYNQFWSQVTQNRTVVKANAYAIASKDPQQRQFHHILRGIGFEVMLKPFIQRSDGSAKGDWDVGIALDGYELAQEVDTVVLVSGDGDFEPLVTRIAQRFQVKVEVYGVPKLTAQHLIDVASQFHPIEHRLL”, “failed”. For “MEKKKPFSVLLMGSDARPGETNGRADTIILATANKQQNAVEMVSIPRDTKVDYGNGDIGKINASYSNGGPSGTVSAVEKLMPGVPVDYFISINMEGFKDLVDAVGGITVYNDIDLTEVNSKFVKGNITLNGTDALQYVRIRHEDPRGDFGRQDRQRDVIIGIANKVISSSGVSNFESIMKAVGDNFQTNMTLTDITSMATNYSSVLKNVDSQELKGEGEMIYSESYGFDLYYFAPDETDLERVINMFKKSLDITELEHHHHHH” the value was “not failed”; for “MEKLKEFRGIKEHLGVFREAVKDAERIGFAGVPGVCTPFAQLFAYAVRDKDNIFIPNTDFSKARKLEVTEYGVELGEISPGNVDVLVLLGGLSMPGIGSDIEDVKKLVEDALEEGGELMGLCYMDMFARAGWYELLDFDCVINADIDGYVLRG”, “not failed”.
